How the values were obtained:
[1] = target: XF1293 (hypothetical conserved protein) (Xylella fastidiosa, UniProt Q9PDT6 Q9PDT6:1-231); assay: SPR; details: tags: His6, E. coli; label: biotin
[2] = target: XF0749 (virulence regulator) (Xylella fastidiosa, UniProt Q9PFC9 Q9PFC9:1-134); assay: SPR; details: tags: His6, E. coli; label: biotin
BSA = BSA (UniProt P02769 P02769:25-607); assay: ELONA; PBS-T, 4 C overnight; details: label: biotin
[3] = target: T1, TTF1 (thyroid transcription factor 1) (Ciona intestinalis, UniProt O96738 O96738:1-477); assay: SPR; kinetic global fit 1:1; steady-state Kd 5.14 nM; HBS-P pH 7.5, 150 mM NaCl; details: tags: N-terminal His6 plus factor Xa site (pNHis vector), E. coli; label: biotin
T1 sequence: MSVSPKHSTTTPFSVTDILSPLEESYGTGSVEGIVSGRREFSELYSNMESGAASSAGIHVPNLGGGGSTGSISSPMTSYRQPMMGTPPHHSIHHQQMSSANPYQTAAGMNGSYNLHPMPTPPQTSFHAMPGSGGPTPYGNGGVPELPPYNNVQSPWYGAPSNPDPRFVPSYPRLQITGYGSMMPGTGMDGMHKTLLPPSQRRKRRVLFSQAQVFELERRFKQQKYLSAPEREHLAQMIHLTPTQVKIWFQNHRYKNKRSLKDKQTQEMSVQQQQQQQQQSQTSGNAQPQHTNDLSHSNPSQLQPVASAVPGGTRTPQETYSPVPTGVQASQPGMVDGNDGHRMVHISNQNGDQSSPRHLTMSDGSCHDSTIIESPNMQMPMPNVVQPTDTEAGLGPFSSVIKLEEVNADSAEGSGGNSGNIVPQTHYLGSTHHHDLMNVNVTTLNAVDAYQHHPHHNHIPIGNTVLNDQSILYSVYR
Procedure: (§1) The affinity, as described by the KD, was determined by a global fit using the kinetic simultaneous kₐ/kd model, assuming Langmuir (1:1) binding.
(§2) BIAcore surface plasmon resonance. The affinity of the aptamers for their protein targets was measured using surface plasmon resonance (SPR) with a BIAcore X instrument (BIAcore, Piscataway, N.J.). Biotinylated aptamer (QIAGEN Operon, Alameda, Calif.) was diluted to 0.5 ng/μL in HBS-P (10 mM HEPES, pH 7.5, 150 mM NaCl, 0.05% Tween 20), heated to 95° C., and rapidly cooled at 4° C. before use. Approximately 100 RU of biotinylated aptamer (ligand) was immobilized to one flow cell of a streptavidin coated sensor chip. Purified TTF1 protein was diluted into HBS-P to give a series of concentrations of TTF1 protein (3, 12, 31, 62, 125, 250 nM or 2.5, 5, 10, 20, 40, 100 nM) that were injected over the surface for 2 min at a flow rate of 20 μL/min (to minimize mass transfer limitations). Bulk shift and non-specific interactions with the streptavidin were subtracted using the response from a reference flow cell. […] The affinity, as described by the equilibrium dissociation constant (KD), was determined globally by fitting to the kinetic simultaneous kₐ/kd model, assuming Langmuir (1:1) binding. The steady-state affinity was determined from curve-fitting to a plot of the Req values, derived from sensorgrams fitted locally, against the concentrations.

[4] = target: T1, TTF1 (thyroid transcription factor 1); assay: SPR; kinetic global fit 1:1; steady-state Kd 65.6 nM; HBS-P pH 7.5, 150 mM NaCl; details: tags: N-terminal His6 plus factor Xa site (pNHis vector), E. coli; label: biotin
Procedure: as §1, §2

Chain of BSA (P02769 25-607, one chain of several): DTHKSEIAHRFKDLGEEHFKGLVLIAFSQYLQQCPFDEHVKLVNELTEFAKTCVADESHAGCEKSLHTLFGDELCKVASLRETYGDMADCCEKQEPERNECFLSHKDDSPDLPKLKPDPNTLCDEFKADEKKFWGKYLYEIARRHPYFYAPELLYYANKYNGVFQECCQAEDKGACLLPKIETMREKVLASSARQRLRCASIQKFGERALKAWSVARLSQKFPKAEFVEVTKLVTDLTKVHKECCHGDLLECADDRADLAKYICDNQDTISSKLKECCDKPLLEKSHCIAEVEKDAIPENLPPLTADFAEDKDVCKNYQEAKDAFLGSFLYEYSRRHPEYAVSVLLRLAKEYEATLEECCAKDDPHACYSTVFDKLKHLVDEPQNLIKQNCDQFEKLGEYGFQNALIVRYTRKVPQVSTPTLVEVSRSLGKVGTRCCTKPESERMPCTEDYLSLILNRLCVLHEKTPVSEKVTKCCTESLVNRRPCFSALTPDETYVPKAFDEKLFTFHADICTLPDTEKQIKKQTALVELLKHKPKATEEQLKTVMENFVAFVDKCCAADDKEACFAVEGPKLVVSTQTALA

B1: 6H1 (ssDNA)
DNA: GGTATTGAGGGTCGCATCGGCAAAAAGGATTGCCCAGGTCTGCTGTCTAGCCGGATTCGATGGCTCTAACTCTCCTCT
Kd [1]: 0.08 nM

B2: 6H7 (ssDNA)
DNA: GGTATTGAGGGTCGCATCGCTATGGGTGGTCTGGTTGGGATTGGCCCCGGGAGCTGGCGATGGCTCTAACTCTCCTCT
Kd [1]: 0.4 nM | Kd [2]: 42 nM

B3: TTF1 Aptamer A (ssDNA)
DNA: GGTATTGAGGGTCGCATCTCAAAAGGGGTGATTGCTTGCACAATGACAGGGTAGGACAGATGGCTCTAACTCTCCTCT
binding result (BSA): no binding | Kd [3]: 3.36 nM

B4: 6H5 (ssDNA)
DNA: GGTATTGAGGGTCGCATCGGCTTCAGGTTGGTCTGGTTGGGTTTGGCTCCTGTGTACGGATGGCTCTAACTCTCCTCT
Kd [1]: 30 nM

B5: TTF1 Aptamer C (ssDNA)
DNA: GGTATTGAGGGTCGCATCTGGCTAGTGGGTAAGGGGCGGGAGGGTGACAGGGCGATCCGATGGCTCTAACTCTCCTCT
Kd [4]: 32.5 nM

From US20050142582, “Aptamers and methods for their in vitro selection and uses thereof” (The Regents of the University of California, published 2005)
